Source: patent publication US20240374746A1, “SIRP-ALPHA ANTIBODIES AND CONJUGATES” (Tallac Therapeutics, Inc., priority 2021, published 2024)

Tests used:
[1] = system: RENCA renal carcinoma cells; test: RENCA syngeneic tumor model, mIgG2a versus mIgG1 Fc conjugates; assay type: in vivo, mouse; details: BALB/c mice, 10 mg/kg i.p., 3 doses every 3 days, compared to conjugate with the mIgG1 Fc domain
Text: Experiments using anti-SIRP-α antibody-CpG oligonucleotide conjugate used the mouse CpG oligo 4523 (SEQ ID NO: 121) conjugated to anti-SIRP-α antibody comprising a heavy chain comprising the sequence of […] (SEQ ID NO:90) for mIgG2a or […] (SEQ ID NO:91) for mIgG1 and a light chain comprising the sequence of […] (SEQ ID NO:111). The sequence of the 4523 murine CpG oligonucleotide is tucgtcgtgacgtt-c3, where lower case indicates phosphothioate linkages, bold indicates iodo-uridine, and underlining indicates phosphotriester linker (SEQ ID NO:121). RENCA renal carcinoma cells (ATCC) were cultured in Complete RPMI 1640 (RPMI 1640+10% FBS (Gibco)) at 37° C. and 5% CO2. Cells were detached with Trypsin 0.25% (Gibco) and washed twice with RPMI 1640 (Gibco). Cells were resuspended at 20E6/mL in RPMI 1640 and kept on ice until use. 100 uL of suspended cells were subcutaneously implanted into the right flank of 6-week-old female BALB/c mice (Charles River). Tumor size was measured and recorded twice a week with calipers starting 9 days post implantation until duration of the study, approximately 35 days later. Tumor volume was calculated using the following formula: (length×width×width)/2. Once tumors reached on average 75 mm^3, […], mice were randomized by tumor size and treatments were initiated. […]

[2] = system: RENCA renal carcinoma cells; test: RENCA mouse syngeneic tumor model refractory to PD-1; assay type: in vivo; details: 10 mg/kg i.p. three times, three days apart, single agent
Protocol: RENCA renal carcinoma cells line (ATCC) was cultured in Complete RPMI (RPMI, 10% FBS, 1× Pen/Strep, 1× Glutamax) at 37° C. and 5% CO2. Cells were detached with Trypsin 0.25% (Gibco) and washed twice with RPMI 1640 (Gibco). Cells were resuspended at 20E6/mL in RPMI 1640 and kept on ice until use. 100 μL of suspended cells were subcutaneously implanted into the right flank of 6-week-old female BALB/c mice (Charles River). Tumor size was measured and recorded twice a week with calipers starting 9 days post implantation until duration of the study, approximately 27 days later. Tumor volume was calculated using the following formula: (length×width×width)/2. Once tumors reached on average 56 mm^3, approximately 9 days post implantation, mice were randomized by tumor size and treatments were initiated. Anti-mSIRP-α conjugated to mT-CpG (heavy chain comprising the sequence of SEQ ID NO:91 and light chain comprising the sequence of SEQ ID NO:111, conjugated to mouse CpG oligo 4523 (SEQ ID NO:121)) was administered intraperitoneally 3 doses every 3 days at 10 mg/kg. In the anti-PD-1 RMP1-14 (BioXcell) treated cohort, dosing was initiated on day 10 post-tumor implantation once tumors reached on average 52 mm. A total of 3 doses 3 days apart at 10 mg/kg were administrated.

[3] = system: B16-F10 melanoma cell line; test: B16F10 mouse syngeneic tumor model, combination with anti-PD-L1; assay type: in vivo; details: 30 mg/kg i.p. in combination with anti-PD-L1 antibody 10 mg/kg, compared to either alone
Protocol: B16-F10 melanoma cell line (ATCC) was cultured in Complete Dulbecco's Modified Eagle's Medium (DMEM, 10% FBS, 1% Pen/Strep, 1% Glutamax, 1% Sodium Pyruvate) at 37° C. and 5% CO2. Cells were detached with Trypsin 0.25% (Gibco) and washed twice with DMEM (Gibco). Cells were resuspended at 6E6/mL in DMEM and kept on ice until use. 100 μL of suspended cells were subcutaneously implanted into the right flank of 6-week-old female C57BL/6 mice (Charles River). Tumor size was measured and recorded 2-3 times a week with calipers starting 7 days post-implantation until duration of the study, approximately 17 days later. Tumor volume was calculated using the following formula: (length×width×width)/2. Once tumors reached on average 55 mm^3, approximately 7 days post-implantation, mice were randomized by tumor size and treatments were initiated. The conjugates were administered intraperitoneally 2 doses every 3 days at 30 mg/kg. Anti-PD-L1 was administered intraperitoneally 2 doses every 3 days at 10 mg/kg. […] The anti-mSIRP-α antibody conjugate comprised murine reactive mT-CpG oligonucleotide (SEQ ID NO: 121) conjugated to an anti-SIRP-α antibody comprising a heavy chain comprising the sequence of SEQ ID NO:91 and a light chain comprising the sequence of SEQ ID NO:111. […]

[4] = system: CT26 mouse colon carcinoma cells; test: CT26 mouse syngeneic tumor model, alone and in combination with anti-PD-1; assay type: in vivo
Protocol: CT26 mouse colon carcinoma cells (ATCC) were cultured in Complete RPMI (RPMI, 10% FBS, 1× Pen/Strep, 1× Glutamax) at 37° C. and 5% CO2. Once cells were 80% confluent, cells were detached with Trypsin 0.25% (Gibco) and washed twice with RPMI 1640 (Gibco). Cells were resuspended at 20E6/mL in RPMI 1640 and kept on ice until use. 100 μL of suspended cells were subcutaneously implanted into the right flank of 6 week old female BALB/c mice (Charles River). Tumor size was measured and recorded twice a week with calipers starting 7 days post implantation until duration of the study, approximately 27 days later. Tumor volume was estimated using the following formula: (length×width×width)/2. Once tumors reached 110 mm^3, approximately 9 days post implantation, mice were randomized by tumor size and treatments were initiated. Anti-mSIRP-α antibody-CpG oligonucleotide conjugate with a heavy chain comprising the sequence of SEQ ID NO:91 and a light chain comprising the sequence of SEQ ID NO: 111, conjugated to mouse CpG oligo 4523 (SEQ ID NO:121), […], 4 days apart, anti-PD-1 […] (BioXcell) at 10 mg/kg twice, 4 days apart as a single agent or in combination with anti-mSIRP-α antibody-CpG oligonucleotide conjugate for a total of two doses 4 days apart and anti-PD-1 twice, two days post anti-mSIRP-α antibody-CpG oligonucleotide conjugate.

[5] = system: MC38 overexpressing mouse SIRPα and parental MC38 colon carcinoma cells; test: Mouse syngeneic MC38 model with SIRP-α-positive and SIRP-α-negative tumor cells; assay type: in vivo; details: 1 mg/kg i.p. twice, three days apart; MC38 overexpressing SIRP-α compared with parental MC38
Protocol: Parental MC38 colon carcinoma cells (ATCC) and MC38 overexpressing mouse SIRPα were cultured in Complete Dulbecco's Modified Eagle's Medium (Gibco) (DMEM, 10% FBS, 1% Pen/Strep, 1% Glutmax, 1% sodium pyruvate) at 37° C. and 5% CO2. Cells were detached with Trypsin 0.25% (Gibco) and washed twice with DMEM. Cells were resuspended at 20E6/mL in DMEM and kept on ice until use. 100 μL of suspended cells were subcutaneously implanted into the right flank of 6-week-old female C57/BL6 mice (Charles River). Tumor size was measured and recorded twice a week with calipers starting 4 days post implantation until duration of the study, approximately 17 days later. Tumor volume was calculated using the following formula: (length×width×width)/2. Once MC38 parental and MC38 SIRP-α tumors reached on average 94 mm^3 to 88 mm^3, respectively, approximately 4 days post implantation, mice were randomized by tumor size and treatments were initiated. The anti-SIRP-α mIgG1 conjugated to mTCpG (heavy chain comprising the sequence of SEQ ID NO:91 and light chain comprising the sequence of SEQ ID NO: 111, conjugated to mouse CpG oligo 4523 (SEQ ID NO: 121)) was administered intraperitoneally 2 doses every 3 days at 1 mg/kg.

Row | Molecule | anti-tumor inhibition [1] | anti-tumor response [2] | anti-tumor response [3] | tumor growth inhibition ([4]; 1 mg/kg i.p., single agent) | anti-tumor response ([4]; suboptimal dose 0.3 mg/kg in combination with anti-PD-1 antibody 10 mg/kg, compared to either alone) | anti-tumor activity [5]
1 | conjugate with the mIgG2a Fc: anti-SIRP-α antibody, heavy chain SEQ ID NO:90 and light chain SEQ ID NO:111, conjugated to mouse CpG oligo 4523 (SEQ ID NO:121) (conjugate, antibody conjugated to CpG oligonucleotide; modified_base 2 OTHER; iodo-uridine; modified_base 1..5 OTHER; phosphorothioate linkages; misc_feature 5^6 phosphotriester linker; modified_base 6..14 OTHER; misc_feature 14 3' spacer C3) heavy: DVQLVESGGGVVRPGESLRLSCAASGFTFSSNAMSWVRQAPGKGLEWLAGISAGGSDTYYPASVKGRFTISRDNSKNTLYLQMNTLTAEDTAVYYCARETWNHLFDYWGLGTLVTVSSAKTTAPSVYPLAPVCGDTTGSSVTLGCLVKGYFPEPVTLTWNSGSLSSGVHTFPAVLQSDLYTLSSSVTVTSSTWPSQSITCNVAHPASSTKVDKKIEPRGPTIKPCPPCKCPAPNLLGGPSVFIFPPKIKDVLMISLSPIVTCVVVDVSEDDPDVQISWFVNNVEVHTAQTQTHREDYNSTLRVVSALPIQHQDWMSGKEFKCKVNNKDLPAPIERTISKPKGSVRAPQVYVLPPPEEEMTKKQVTLTCMVTDFMPEDIYVEWTNNGKTELNYKNTEPVLDSDGSYFMYSKLRVEKKNWVERNSYSCSVVHEGLHNHHTTKSFSRTPGRPQGFGPP light: ALTQPASVSANPGETVKIACSGGDYYSYYYGWYQQKAPGSALVTVIYSDDKRPSDIPSRFSGSASGSTATLTITGVRAEDEAVYYCGGYDYSTYANAFGAGTTLTVLGQPKSSPSVTLFPPSSEELETNKATLVCTITDFYPGVVTVDWKVDGTPVTQGMETTQPSKQSNNKYMASSYLTLTARAWERHSSYSCQVTHEGHTVEKSLSRADCS DNA: ttcgtcgtgacgtt | reduced anti-tumor inhibition |  |  |  |  | 
2 | anti-mSIRP-α antibody conjugated with murine reactive mT-CpG: anti-SIRP-α mIgG1, heavy chain SEQ ID NO:91 and light chain SEQ ID NO:111, conjugated to mouse CpG oligo 4523 (SEQ ID NO:121) (conjugate, antibody conjugated to CpG oligonucleotide; modified_base 2 OTHER; iodo-uridine; modified_base 1..5 OTHER; phosphorothioate linkages; misc_feature 5^6 phosphotriester linker; modified_base 6..14 OTHER; misc_feature 14 3' spacer C3) heavy: DVQLVESGGGVVRPGESLRLSCAASGFTFSSNAMSWVRQAPGKGLEWLAGISAGGSDTYYPASVKGRFTISRDNSKNTLYLQMNTLTAEDTAVYYCARETWNHLFDYWGLGTLVTVSSAKTTPPSVYPLAPGSAAQTNSMVTLGCLVKGYFPEPVTVTWNSGSLSSGVHTFPAVLQSDLYTLSSSVTVPSSTWPSETVTCNVAHPASSTKVDKKIVPRDCGCKPCICTVPEVSSVFIFPPKPKDVLTITLTPKVTCVVVDISKDDPEVQFSWFVDDVEVHTAQTQPREEQFNSTFRSVSELPIMHQDWLNGKEFKCRVNSAAFPAPIEKTISKTKGRPKAPQVYTIPPPKEQMAKDKVSLTCMITDFFPEDITVEWQWNGQPAENYKNTQPIMDTDGSYFIYSKLNVQKSNWEAGNTFTCSVLHEGLHNHHTEKSLSHSPGRPQGFGPP light: ALTQPASVSANPGETVKIACSGGDYYSYYYGWYQQKAPGSALVTVIYSDDKRPSDIPSRFSGSASGSTATLTITGVRAEDEAVYYCGGYDYSTYANAFGAGTTLTVLGQPKSSPSVTLFPPSSEELETNKATLVCTITDFYPGVVTVDWKVDGTPVTQGMETTQPSKQSNNKYMASSYLTLTARAWERHSSYSCQVTHEGHTVEKSLSRADCS DNA: ttcgtcgtgacgtt |  | potent, single-agent anti-tumor response | enhanced anti-tumor response | robust tumor growth inhibtion | enhanced anti-tumor response | superior anti-tumor activity
